Reference: patent US20110045534A1
Where “and” joins values, the source holds several entries; their conditions need not be identical. Identical values can stand only once.

What was measured:
[1] = target: immunizing peptide for ERK2p; test: ELISA on coated peptide; supernatant 1/10
[2] = target: immunizing peptide for MRPL11; test: ELISA on coated peptide; supernatant 1/10
[3] = target: immunizing peptide for SUZ12; test: ELISA on coated peptide; supernatant 1/10
[4] = target: immunizing peptide for ERK2p; test: ELISA on coated peptide; supernatant 1x
[5] = target: immunizing peptide for MRPL11; test: ELISA on coated peptide; supernatant 1x
[6] = target: immunizing peptide for SUZ12; test: ELISA on coated peptide; supernatant 1x

Binder | absorbance (OD 450 nm) [1] | absorbance (OD 450 nm) [2] | absorbance (OD 450 nm) [3] | absorbance (OD 450 nm) [4] | absorbance (OD 450 nm) [5] | absorbance (OD 450 nm) [6]
anti-MRPL11 rabbit IgG expressed from the L-2A-H cassette (antibody) light: QVLTQTPSPVSAAVGNTVTINCQASQSVRDNNYLSWYQQKPGQPPKLLIYRASTLESGVPSRFKGNGSGTQFTLTISDLECDDAATYYCQGGYGGNFFPFGGGTEVVVKGDPVAPTVLIFPPAADQVATGTVTIVCVANKYFPDVTVTWEVDGTTQTTGIENSKTPQNSADCTYNLSSTLTLTSTQYNSHKEYTCKVTQGTTSVVQSFNRGDCEGRGSLLTCGDVEENPG heavy: QSVEESGGRLVKPDETLTITCTVSGIDLNNNAMGWVRQAPGEGLEYIGFIGGSGATYYSTWAKGRFTISKSSTTVDLMITSPTTEDTATYFCARYAGSGSFDFSGPGTLVTVSLGQPKAPSVFPLAPCCGDTPSSTVTLGCLVKGYLPEPVTVTWNSGTLTNGVRTFPSVRQSSGLYSLSSVVSVTSSSQPVTCNVAHPATNTKVDKTVAPSTCSKPTCPPPELLGGPSVFIFPPKPKDTLMISRTPEVTCVVVDVSQDDPEVQFTWYINNEQVRTARPPLREQQFNSTIRVVSTLPIAHQDWLRGKEFKCKVHNKALPAPIEKTISKARGQPLEPKVYTMGPPREELSSRSVSLTCMINGFYPSDISVEWEKNGKAEDNYKTTPAVLDSDGSYFLYSKLSVPTSEWQRGDVFTCSVMHEALHNHYTQKSISRSPGK | 0.0621 OD450 and 0.0483 OD450 | 1.14 OD450 and 0.99 OD450 | 0.0486 OD450 and 0.0529 OD450 | 0.0663 OD450 and 0.0671 OD450 | 0.973 OD450 and 0.998 OD450 | 0.0542 OD450 and 0.0585 OD450
anti-MRPL11 rabbit IgG expressed from the H-2A-L cassette (antibody) heavy: QSVEESGGRLVKPDETLTITCTVSGIDLNNNAMGWVRQAPGEGLEYIGFIGGSGATYYSTWAKGRFTISKSSTTVDLMITSPTTEDTATYFCARYAGSGSFDFSGPGTLVTVSLGQPKAPSVFPLAPCCGDTPSSTVTLGCLVKGYLPEPVTVTWNSGTLTNGVRTFPSVRQSSGLYSLSSVVSVTSSSQPVTCNVAHPATNTKVDKTVAPSTCSKPTCPPPELLGGPSVFIFPPKPKDTLMISRTPEVTCVVVDVSQDDPEVQFTWYINNEQVRTARPPLREQQFNSTIRVVSTLPIAHQDWLRGKEFKCKVHNKALPAPIEKTISKARGQPLEPKVYTMGPPREELSSRSVSLTCMINGFYPSDISVEWEKNGKAEDNYKTTPAVLDSDGSYFLYSKLSVPTSEWQRGDVFTCSVMHEALHNHYTQKSISRSPGKEGRGSLLTCGDVEENPG light: QVLTQTPSPVSAAVGNTVTINCQASQSVRDNNYLSWYQQKPGQPPKLLIYRASTLESGVPSRFKGNGSGTQFTLTISDLECDDAATYYCQGGYGGNFFPFGGGTEVVVKGDPVAPTVLIFPPAADQVATGTVTIVCVANKYFPDVTVTWEVDGTTQTTGIENSKTPQNSADCTYNLSSTLTLTSTQYNSHKEYTCKVTQGTTSVVQSFNRGDC | 0.0478 OD450 and 0.0482 OD450 | 0.972 OD450 and 1.04 OD450 | 0.0461 OD450 and 0.0445 OD450 | 0.0534 OD450 and 0.0524 OD450 | 1.01 OD450 and 1.06 OD450 | 0.0487 OD450 and 0.0489 OD450
anti-MRPL11 rabbit IgG expressed from two separate vectors (H + L positive control) (antibody) heavy: QSVEESGGRLVKPDETLTITCTVSGIDLNNNAMGWVRQAPGEGLEYIGFIGGSGATYYSTWAKGRFTISKSSTTVDLMITSPTTEDTATYFCARYAGSGSFDFSGPGTLVTVSLGQPKAPSVFPLAPCCGDTPSSTVTLGCLVKGYLPEPVTVTWNSGTLTNGVRTFPSVRQSSGLYSLSSVVSVTSSSQPVTCNVAHPATNTKVDKTVAPSTCSKPTCPPPELLGGPSVFIFPPKPKDTLMISRTPEVTCVVVDVSQDDPEVQFTWYINNEQVRTARPPLREQQFNSTIRVVSTLPIAHQDWLRGKEFKCKVHNKALPAPIEKTISKARGQPLEPKVYTMGPPREELSSRSVSLTCMINGFYPSDISVEWEKNGKAEDNYKTTPAVLDSDGSYFLYSKLSVPTSEWQRGDVFTCSVMHEALHNHYTQKSISRSPGK light: QVLTQTPSPVSAAVGNTVTINCQASQSVRDNNYLSWYQQKPGQPPKLLIYRASTLESGVPSRFKGNGSGTQFTLTISDLECDDAATYYCQGGYGGNFFPFGGGTEVVVKGDPVAPTVLIFPPAADQVATGTVTIVCVANKYFPDVTVTWEVDGTTQTTGIENSKTPQNSADCTYNLSSTLTLTSTQYNSHKEYTCKVTQGTTSVVQSFNRGDC | 0.0629 OD450 | 1.01 OD450 | 0.0485 OD450 | 0.0575 OD450 | 0.971 OD450 | 0.0474 OD450
